Data published in paper PMC12472674 (Nanomaterials, 2025).

Key:
[1] = healthy subjects, SC injection; cited from earlier work
Excerpt: SMG is a 31-amino acid peptide with a molecular weight of 4113.58 Da, structurally derived from native GLP-1 by substitutions at positions 8 (alanine to α-aminoisobutyric acid) and 34 (lysine to arginine), and acylation of the lysine residue at position 26 with a C18 fatty diacid chain. These modifications enhance albu ...

[2] = Solubility of SMG in release medium; type: physicochemical
[3] = Octanol–water partition coefficient (logP), shake-flask method; type: physicochemical; conditions: mutually saturated n-octanol/distilled water, 10 mg freeze-dried complex in 10 mL of each phase, stirred 400 rpm 24 h, 25 °C, HPLC-UV 230 nm, SMG 5.36 mg/mL, in the presence of Zn 0.5 mg/mL (Figure 2a), mean, n = 3
Experimental: The prepared SMG–PS–Zn complex suspensions were stored at −80 °C for 24 h, then freeze-dried using a lyophilizer (TFD 8501, Ilshinbiobase Co. Ltd., Dongducheon-si, Republic of Korea) at −80 °C and under a vacuum of <10 mTorr for 24 h to obtain dried samples. Then, the octanol–water partition coefficient (logP) was determined using the classical shake-flask method. Equal volumes of n-octanol and distilled water were mutually saturated by vigorous mixing and phase separation. Ten milligrams of freeze-dried complexes were placed in a 20 mL scintillation vial, followed by the addition of 10 mL each of the pre-saturated octanol and water phases. The vial was sealed and stirred at 400 rpm for 24 h to reach equilibrium. After incubation, the mixture was centrifuged at 13,000 rpm to separate the phases. The octanol phase was diluted 10-fold with methanol, and the aqueous phase was diluted 10-fold with the mobile phase. Drug concentrations in both phases were quantified using high-performance liquid chromatography (HPLC) analysis, and logP was calculated as the logarithm of the ratio of drug concentration in octanol to that in water.
The concentration of SMG in the complex suspension was quantified by reversed phase-HPLC, with minor modifications to previously reported methods. […] The limits of detection and quantification were 0.523 μg/mL and 1.569 μg/mL, respectively.

**Q.** What does the source list for Semaglutide [SMG]?
**A.** Elimination half-life [1]: approximately 7 days; Solubility in PBS (pH 7.4) release medium [2]: 26.8 mg/mL; logP (octanol/distilled water) [3]: approximately −4.7
